Test results reported in the DeepSol protein solubility set.

test: soluble on expression in E. coli; label from the status in PepcDB or PDB records

Sequence | soluble on expression in E. coli
MDQKSTTCLEALAKLSQQREHQTTPATLCSSEHFFANETIYSDATFLSTTEEAFISSPSSSTQGPKPGLKRVSTGPMTRILEGCQNDKPNSPELERVEEAEDNYSGTSSEEAFSQGIPYPHQVGGHGALSSFERGRVLKPAAKKEIDFYNFIYSDNLPSELEWLRTVTPKYFGQRKTQAKAKRILENQVTPFSQTSSVPVNTVLHIDRKDSERNIWKDQVGELVMDTNPWARACLLKELQKEDEVKSFIILEDLTCHLKKPCVLDCKMGTRHYDDDATEEKKKAHIEKATKTTSSSTGIRFTGMQVYKLPSHTFLFHDKYYGRQLKSHELKNELFEFFHNGVLLRVDIIEQFLSKLQWLYQHLENQHYFNFYSSSLLFVYEGDEMATCPISDVRMIDFAHTQRCVEEQQNDGYLFGLSNLIHLMKSLLEDERNEMR | soluble
MDRFELLGPLPREGTTTVLEASAGTGKTFALAGLVTRYLAETAATLDEMLLITFNRAASRELRERVRGQIVEAVGALQGDAPPSGELVEHLLRGSDAERAQKRSRLRDALANFDAATIATTHEFCGSVLKSLGVAGDNAADVELKESLTDLVTEIVDDRYLANFGRQETDPELTYAEALALALAVVDDPCAQLRPPDPEPGSKAAVRLRFAAEVLEELERRKGRLRAQGFNDLLIRLATALEAADSPARDRMRERWRIVLVDEFQDTDPMQWRVLERAFSRHSALILIGDPKQAIYGFRGGDIHTYLKAAGTADARYTLGVNWRSDRALVESLQTVLRDATLGHADIVVRGTDAHHAGHRLASAPRPAPFRLRVVKRHTLGYDGTAHVPIEALRRHIPDDLAADVAALLASGATFAGRPVVAADIAVIVEHHKDARACRNALAEAGIPAIYTGDTDVFASQAAKDWLCLLEAFDAPQRSGLVRAAACTMFFGETAESLAAEGDALTDRVAGTLREWADHARHRGVAAVFQAAQLAGMGRRVLSQRGGERDLTDLAHIAQLLHEAAHRERLGLPGLRDWLRRQAKAGAGPPEHNRRLDSDAAAVQIMTVFVAKGLQFPIVYLPFAFNRNVRSDDILLYHDDGTRCLYIGGKDGGAQRRTVEGLNRVEAAHDNLRLTYVALTRAQSQVVAWWAPTFDEVNGGLSRLLRGRRPGQSQVPDRCTPRVTDEQAWAVFAQWEAAGGPSVEESVIGARSSLEKPVPVPGFEVRHFHRRIDTTWRRTSYSDLVRGSEAVTVTSEPAAGGRADEVEIAVVAAPGSGADLTSPLAALPSGASFGSLVHAVLETADPAAPDLAAELEAQVRRHAPWWTVDVDHAQLAPELARALLPMHDTPLGPAAAALTLRQIGVRDRLRELDFEMPLAGGDLRGRSPDVSLADVGELLASHLPGDDPLSPYADRLGSAGLGDQPLRGYLAGSIDVVLRLPGQRYLVVDYKTNHLGDTAADYGFERLTEAMLHSDYPLQALLYVVVLHRFLRWRQRDYAPARHLGGVLYLFVRGMCGAATPVTAGHPAGVFTWNPPTALVVALSDLLDRGRLQS | soluble
MDRNPSEPERIDWKNPITWISYLYTSFVYYLWLISSHLPHLPQPQRITDDKSTEQITRDAGIPRTEIVTRGDATQTVRQVAGLGDPAPKDSSLLPPSSSFVYCNNCLTPHSSQRTCSPAYVSTLSRQKSLTLLKKLKKPSSSASSTTTTTSSTVSFRAPSRASSTISDASTIRPSELIAIVPSGSHVLLRVPKLDWKTESIRIKRTRMSDWMDAEQRDVMRQFDEVIRSEEEDERTSRKRNGIFKDGSVRSIESLESRSRSKETPVFVPPPPPPTDAMPYLPRLAELNKGTPDQEFGFNLHAERGRGHFIGTVDAGGIGEKAGLEAGQRIVGVNGQLIYPTTGHKEVVALIKKDTMKTTLLVASEDVDKYHKDHNIAYSWDNVERVDTRPVINVETHHHHEEVSVPKSNGYDVPPLNPHSIQVNEEREISKMTTTTRTETITNSNSAYQYKESSTAYDAYATPPVDSNDLMDEVFGRVNLPGVTMSSHTEVLPPTDDISSVSSLSSHRESAVDVPVSHQYVPSYATESHQKHEQHSQTHHHHHQHQQPSPLSNGSSHGYAASSTSGYDDDDIYHLSAREARERLRMKNRKHHLHEMSLNEKYQLVSNM | not soluble
MDRRIAMSLQVLGAGLGRTGTLSLKFALEHLGFGPCYHATEVAANMRTALPLWNAAERGAADWSAIFAGYRSSTDHPGCYYWRQLIEVYPQAKVVLTVRDPDSWFESVTQTILMPGRKSTFVGPEGETFSTFLKQQMGGRSQDRAFMVDYFNRWNQAVIDAVPSDRLLVFSSRQGWAPLCGFLSVPVPHKPYPHLHARPRLRWFTRGLRLPDDVAARERHVREYLQYLREDLFGLEHHHHHH | soluble
MDSDPLGVFPNSPKYHPYYSQTTEFGGVIDLGLSLRTIQHEIYHSSGQIMTCGKGYCSNEGYRRKWGYVKVTMDGLVVGRKVCVLDHGSYSTLAHQLEDMFGMQSVSGLRLFQMESEFCLVYRDEEGLWRNAGDVPWNEFIESVERLRITRRNDAVLPF | not soluble
